# Test results published in patent US20240011005A1 (HUIDAGENE THERAPEUTICS, published 2024).
# Positions count from the first letter of the chain named.
# How the values were obtained:
# Test in all cases: cell_activity
# [1] = tested on: T1, OsCas12f1-D52R (Oscillibacter sp.); conditions: PAM TTTC; 1.31-fold in text
# T1 sequence: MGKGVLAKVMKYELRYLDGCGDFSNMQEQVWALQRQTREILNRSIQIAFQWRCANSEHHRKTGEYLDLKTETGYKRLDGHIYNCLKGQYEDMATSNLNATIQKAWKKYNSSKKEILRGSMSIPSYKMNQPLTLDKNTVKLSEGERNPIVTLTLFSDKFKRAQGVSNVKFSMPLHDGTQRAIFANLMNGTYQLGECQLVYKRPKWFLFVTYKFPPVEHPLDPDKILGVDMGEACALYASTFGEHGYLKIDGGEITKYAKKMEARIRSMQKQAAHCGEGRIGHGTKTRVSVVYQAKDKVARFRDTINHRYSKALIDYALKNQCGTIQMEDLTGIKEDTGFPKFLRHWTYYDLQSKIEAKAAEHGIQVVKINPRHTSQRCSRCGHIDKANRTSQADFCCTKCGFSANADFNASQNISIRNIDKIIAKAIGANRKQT
# [2] = tested on: T2, OsCas12f1-S119R S119R (Oscillibacter sp.); conditions: PAM TTTC
# T2 sequence: T1 sequence with R52D, S119R
# [3] = tested on: T3, OsCas12f1-T132R T132R (Oscillibacter sp.); conditions: PAM TTTC
# T3 sequence: T1 sequence with R52D, T132R
# [4] = tested on: T4, OsCas12f1 (ME-B.3) (Oscillibacter sp.); conditions: PAM TTTC, HEK293T
# T4 sequence: T1 sequence with R52D
# [5] = tested on: T5, OsCas12f1-S141R S141R (Oscillibacter sp.); conditions: PAM TTTC
# T5 sequence: T1 sequence with R52D, S141R
# [6] = tested on: T6, OsCas12f1-A54R A54R (Oscillibacter sp.); conditions: PAM TTTC
# T6 sequence: T1 sequence with R52D, A54R
# [7] = molecular target: T7, Un1Cas12f1_ge4.1 (Uncultured bacterium) (UniProt A0A482D308); conditions: PAM TTTG per Table 1; 36.1 in Rh screen
# T7 sequence: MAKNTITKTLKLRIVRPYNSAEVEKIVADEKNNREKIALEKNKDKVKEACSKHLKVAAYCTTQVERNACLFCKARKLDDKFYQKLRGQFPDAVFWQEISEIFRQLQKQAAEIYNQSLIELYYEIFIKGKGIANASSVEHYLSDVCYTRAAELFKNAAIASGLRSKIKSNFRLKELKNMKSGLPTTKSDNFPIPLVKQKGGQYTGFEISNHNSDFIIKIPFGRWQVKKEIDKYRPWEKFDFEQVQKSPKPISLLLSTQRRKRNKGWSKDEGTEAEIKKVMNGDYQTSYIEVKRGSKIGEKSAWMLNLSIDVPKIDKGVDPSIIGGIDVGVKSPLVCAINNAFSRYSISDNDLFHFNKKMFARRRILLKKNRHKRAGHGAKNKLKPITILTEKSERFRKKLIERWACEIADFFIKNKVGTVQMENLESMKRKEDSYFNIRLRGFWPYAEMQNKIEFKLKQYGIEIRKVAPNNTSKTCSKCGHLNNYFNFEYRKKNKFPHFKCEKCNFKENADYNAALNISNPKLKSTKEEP
Sequence,activity [1],activity [2],activity [3],activity [4],activity [5],activity [6],activity [7]
AGGGACGACUUCCCGUCCCAAAAUCGAGACAGUAGCCGUAAAACUUUGAGUUUCAGAGUGGGCGACACACUCGAAAAGGUUAAGAUAUGCACAUAGUAAUCCGUGCAUGAGCCGCGAAAGCGGCUUGAAGGCCAUUACAGUAGGAGCAUACUUUUAUUUUUUU / TTTCCCATTACAGTAGGAGCATACGGG / CCCGTATGCTCCTACTGTAATGGGAAA,52.8 % GFP+,46.3 % GFP+,48.4 % GFP+,38.7 % GFP+,46.6 % GFP+,45.5 % GFP+,–
"ACCGCUUCACUUAGAGUGAAGGUGGGCUGCUUGCAUCAGCCUAAUGUCGAGAAGUGCUUUCUUCGGAAAGUAACCCUCGAAACAAAGAAAGGAAUGCAACCCAUUACAGUAGGAGCAUACUUUUAUUUUUUU / TTTGCCATTACAGTAGGAGCATAC / GTATGCTCCTACTGTAATGGCAAA [Un1Cas12f1_ge4.1 sgRNA ; reporter insertion, TTTG PAM]",–,–,–,–,–,–,36.5 % GFP+
